Values of other authors in publication PMC2678197.

Columns and labels:
[1] = biological target: CCR5 N-terminal peptide (unsulfated) N-terminal region (Homo sapiens) (UniProt P51681); test: NMR
[2] = biological target: CCR5 N-terminal peptide (bis-sulfated) N-terminal region (Homo sapiens) (UniProt P51681); test: NMR
[3] = biological target: CCR3 N-terminal peptide (truncated, non-sulfated) 8-23 (Homo sapiens) (UniProt P51677)
[4] = biological target: CCR3 N-terminal peptide (35 residues, non-sulfated) 1-35 (Homo sapiens) (UniProt P51677)
Chain of CCR3 N-terminal peptide (35 residues, non-sulfated) 1-35 (Homo sapiens) (P51677 1-35): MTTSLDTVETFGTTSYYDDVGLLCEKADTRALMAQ

Chain of RANTES (P13501 27-91): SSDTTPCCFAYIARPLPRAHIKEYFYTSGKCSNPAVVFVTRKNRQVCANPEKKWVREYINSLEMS
Chain of CCR5 N-terminal peptide (unsulfated) N-terminal region (Homo sapiens) (P51681 1-27): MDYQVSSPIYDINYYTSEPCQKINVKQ

Row | Kd [1] | Kd [2] | Kd [3] | Kd [4] | Substance
1 | 168 µM | < 20 µM |  |  | RANTES (from UniProt P13501)
2 |  |  | 136 µM | 80 µM | eotaxin (from UniProt P51671)
